Experiments:
[1] = molecular target: T1, octameric peptide AVSEATIR
T1 chain: AVSEATIR

[2] = molecular target: T2, peptide AQYPQEVITTVRG (PhoP)
T2 chain: AQYPQEVITTVRG

[3] = molecular target: T3, peptide ATVAKCVEALKERFQASLRD (PheT)
T3 chain: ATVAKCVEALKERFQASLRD

[4] = molecular target: T4, peptide ELNREQKWQMMLSKSMRR (CaiF)
T4 chain: ELNREQKWQMMLSKSMRR

[5] = molecular target: T5, peptide KHVQALDLSMRFR (Nicotinate-nucleotide diphosphorylase)
T5 chain: KHVQALDLSMRFR

[6] = molecular target: T6, peptide KLLRLFFPLSLRV (PhoQ)
T6 chain: KLLRLFFPLSLRV

[7] = molecular target: T7, peptide KTPLAVLQSTLRS (PhoQ)
T7 chain: KTPLAVLQSTLRS

[8] = molecular target: T8, peptide KTPLAVLQSTLRSLR (PhoQ)
T8 chain: KTPLAVLQSTLRSLR

[9] = molecular target: T9, peptide KWQMMLSKSMRR (CaiF)
T9 chain: KWQMMLSKSMRR

[10] = molecular target: T10, peptide LAVLQSTLRSLRS (PhoQ)
T10 chain: LAVLQSTLRSLRS

[11] = molecular target: T11, peptide LLRLFFPLSLRV (PhoQ)
T11 chain: LLRLFFPLSLRV

[12] = molecular target: T12, peptide LTELNREQKWQMMLSKSMRR (CaiF)
T12 chain: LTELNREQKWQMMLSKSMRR

[13] = molecular target: T13, peptide LTHSLKTPLAVLQSTLRS (PhoQ)
T13 chain: LTHSLKTPLAVLQSTLRS

[14] = molecular target: T14, peptide NTHRGMGYSLRGL (CreB)
T14 chain: NTHRGMGYSLRGL

[15] = molecular target: T15, peptide RLLPAVSEATIRRL
T15 chain: RLLPAVSEATIRRL

[16] = molecular target: T16, peptide VAKCVEALKERFQASLRD (PheT)
T16 chain: VAKCVEALKERFQASLRD

[17] = molecular target: T17, peptide VEALKERFQASLRD (Phenylalanyl-tRNA synthetase)
T17 chain: VEALKERFQASLRD

B1: Recombinant YcfD, N-terminally hexa-His tagged (E. coli) (protein)
chain: MEYQLTLNWPDFLERHWQKRPVVLKRGFNNFIDPISPDELAGLAMESEVDSRLVSHQDGKWQVSHGPFESYDHLGETNWSLLVQAVNHWHEPTAALMRPFRELPDWRIDDLMISFSVPGGGVGPHLDQYDVFIIQGTGRRRWRVGEKLQMKQHCPHPDLLQVDPFEAIIDEELEPGDILYIPPGFPHEGYALENAMNYSVGFRAPNTRELISGFADYVLQRELGGNYYSDPDVPPRAHPADVLPQEMDKLREMMLELINQPEHFKQWFGEFISQSRHELDIAPPEPPYQPDEIYDALKQGEVLVRLGGLRVLRIGDDVYANGEKIDSPHRPALDALASNIALTAENFGDALEDPSFLAMLAALVNSGYWFFEG
[1]
  position of hydroxylation (2D-NMR after incubation with YcfD): 2D-NMR analyses revealed the position of hydroxylation as at C-3 of the hydroxylated arginine-residue
[2]
  % hydroxylation (+16 Da): 60%
[3]
  % hydroxylation (+16 Da): 40%
[4]
  % hydroxylation (+16 Da): 40%
[5]
  % hydroxylation (+16 Da): 30%
[6]
  % hydroxylation (+16 Da): 60%
[7]
  % hydroxylation (+16 Da): 95%
[8]
  % hydroxylation (+16 Da): 40%
[9]
  % hydroxylation (+16 Da): 30%
[10]
  % hydroxylation (+16 Da): 60%
[11]
  % hydroxylation (+16 Da): 50%
[12]
  % hydroxylation (+16 Da): 40%
[13]
  % hydroxylation (+16 Da): 90%
[14]
  % hydroxylation (+16 Da): 30%
[15]
  +16Da mass shift (hydroxylation, MALDI-TOF MS): gave a +16Da mass shift upon incubation with YcfD in an Fe(II) and 2OG dependent manner
[16]
  % hydroxylation (+16 Da): 50%
[17]
  % hydroxylation (+16 Da): 40%
